Data published in patent US11904004B2, “Anti-CD277 antibodies” (INSTITUT NATIONAL DE LA SANTE ET DE LA RECHERCHE MEDICALE …, priority 2010, dated 2024).

Legend:
CD4+ T cells = assay: Functional assays on CD4+ T cells using plate-immobilized mAbs; assay type: cell-based, human
Protocol: Purified CD4+ T cells (200×10^3 cells/well) from thawed human PBMCs were cultured in RPMI 1640 10% FBS in flat bottom 96-well plates (MICROTEST™ 96, BD) with previously plate-immobilized mouse anti-human CD3 (clone OKT3)/CD28 (clone CD28.2) or anti-CD3/anti-CD277 (clone 20.1) or anti-CD3/isotypic control (IgG1). Purified anti-CD3 was used at 0, 3 μg/ml. Anti-CD28, anti-CD277 and isotypic control were used at 10 μg/ml. Cells were placed into an atmosphere of 5% CO2 at 37° C. in a humidified incubator. […] […] Data were analyzed using FLOWJO® Software (TreeStar, Ashland, OR).

NK cells = assay: Functional assay on NK cells, redirected cytolytic activity; assay type: cell-based, human
Protocol: Fresh NK cells were sorted with EASY SEP® negative selection kit and incubated over night in medium completed with sub-optimal concentrations of IL-2 (100 U/ml) and IL-15 (10 ng/ml). NK cell receptors functions were tested in re-directed cytolytic experiments against the FcγR positive P815 mastocytoma murine cell line. Briefly, effector cells were incubated with P815 cells pre-coated for 30 minutes with the mAb of interest (irrelevant mouse IgG1: 11 μg/ml, anti-NKp46: 1 μg/ml, anti-DNAM: 5 μg/ml, anti-CD277 20.1: 10 μg/ml) according to a 1:1 Effector:Target (E/T) ratio. Cytotoxic tests were performed in 4-hours assays in the presence of GOLGISTOP® (protein transport inhibitor) and soluble CD107 (a&b)-FITC (both from BD Biosciences), afterward cells were stained for surface markers (CD56-PeCy7 (Beckman Coulter, Immunotech), fixed and permeabilized (CYTOFIX/CYTOPERM®) then stained with intracellular mAb (IFN-γ (Beckman Coulter, Immunotech)). Cells were finally re-suspended in PBS 2% para-formaldehyde and extemporaneously analyzed on a BD FACS CANTO® (BD Biosciences, San Jose, Calif.). The degree of activation of NK cells was measured based on the percentage of cells positive for CD107a and CD107b (degranulation) and/or the production of inflammatory cytokine (IFN-γ).

Vγ9Vδ2 T cells = assay: Stimulation and expansion assay of Vγ9Vδ2 T cells from PBMC; assay type: cell-based, human
Protocol: P815 (mouse mastocytoma cell line), K562 (chronic myeloid leukaemia cell line), Raji and Daudi (Burkitt lymphoma cell lines) were cultured in RPMI 1640 medium (Invitrogen) and 10% foetal calf serum (FCS) (Eurobio). The PBMC from healthy donors were distributed at 106/ml in 24-well culture plates at 37° C. in 5% CO2 in RPMI 1640 medium and 10% FCS. Polyclonal Vγ9Vδ2 T cells were specifically expanded with 3 μmol/l of Phosphostim (BrHPP molecule, Innate Pharma, Marseille, France) and 100 U/ml IL-2 (Chiron, Basel, Switzerland) for 12 days. Phosphostim was added once at the onset of the culture. Every 2 days, one-half of the culture medium volume was replaced with fresh medium containing 100 U/ml IL-2.
PBMC were plated and stimulated as described in the paragraph: cell lines and expansion of γδ T cells, except cells were stimulated with anti-CD277 mAbs (10 μg/ml); or control isotypes (10 μg/ml); and with or without BrHPP at different concentrations. […] Percentages of Vγ9Vδ2 were measured the first day and the last day of culture as described above. Expanded γδ T cells effectors were stimulated with or without different doses of BrHPP added in anti-CD277 mAbs at 10 μg/ml; or with OKT3 (4 ng/ml) associated with anti-BT3 19.5 mAb in different concentrations. Activation of degranulation was measured by CD107 labelling assay as described above.

primary AML blasts = assay: NSG mouse/human primary AML blasts xenograft model; assay type: in vivo; conditions: NSG mice, UPN09 blasts; 250 μg mAb with 15×10^6 Vγ9Vδ2 T cells i.v. twice a week, weeks 8 to 10 post-graft
Excerpt: NOD-SCID common γ-chain knockout mice (NSG) were purchased from Charles River France or bred in-house and maintained under specific pathogen-free conditions. All animal procedures were in accordance with protocols approved by the local Committee for Animal Experiments. Healthy 6- to 8-weeks-old female mice (n=15) received an injection of 0.2×10^6 luciferase transduced-U937 cells on Day 0, as described^13, and were then randomly assigned in 5 groups to receive intravenous injections of post-expansion-purified Vγ9Vδ2 T cells on Day 1 (30×10^6, 98.8% CD3+TCRVδ2+; Unité de Thérapie Cellulaire et Génique de Nantes) alone or combined to anti-BTN3A 20.1 mAb (250 μg) on Day 2 and 6. Controls comprised NSG mice infused with PBS, or anti-BTN3A 20.1 mAb alone. Mice were imaged with a Photon Imager (Biospace Lab, Paris, France) at different days. For the Primary AML blasts model, NSG mice received sublethal irradiation (2 Gy). On the day after, they received 1×10^6 of CD3-depleted blasts (CD3 depletion Kit, Miltenyi Biotec) isolated from UPN09. […] The peripheral blood number of blasts was quantified during engraftment, before and after treatment by Flow Cytometry (supplementary data 1B). Mice were sacrificed at week 11th post-graft and the number of blasts was quantified in their Bone Marrow (BM).

[1] = co-stimulation with anti-CD3, vs anti-CD3/IgG1 control, after 24 hours of culture
[2] = with anti-NKp46 or anti-CD16, data not shown

B1: mAb 20.1: murine anti-CD277 antibody obtainable from the hybridoma CNCM I-4402; agonist (antibody, V domains shown)
VH: QVQLQQSGAELVKPGASVKLSCKASGYTFTRYYLYWVKQRPGQGLEWIGEINPNNGGTKFNEKFKSKATLTVDKSSRTTYIQLSSLTSEDSAVYYCSREDDYDGTPDAMDYWGQGTAVTVSS
VL: DIQMNQSPSSLSASLGDTITITCHASQNINLWLSWYQQRPGNIPKLLIYRASNLHTGVPSRFSGSGSATGFTLTISSLQPEDIATYYCQQGHSYPYTFGGGTKLDIK
IFN-γ production by CD4+ T cells (ELISA) (CD4+ T cells; [1]): strongly enhanced
IL-2 production by CD4+ T cells (ELISA) (CD4+ T cells; [1]): significantly highest than the one with the IgG control
CD25 activated positive cells (CD4+ T cells; co-stimulation with anti-CD3, after 3 days of culture): 45%
NK cell stimulation by CD277 mAb alone (NK cells; P815 redirected assay): did not have any effect
NK cell IFN-γ secretion, co-stimulation of NKp46 or CD16 (NK cells; [2]): not affected
NK cell cytotoxicity, co-stimulation of NKp46 or CD16 (NK cells; [2]): not affected
proliferation of Vγ9Vδ2 cells (CFSE) (Vγ9Vδ2 T cells; PBMC + IL-2): associated with the proliferation
expansion of Vγ9Vδ2 T cells (Vγ9Vδ2 T cells; PBMC + IL-2, 15 days of culture): expanded
circulating blasts (Percentage of variation of the absolute number of blasts in blood before and 4 days after the end of treatment) (primary AML blasts): 37.38±39.89
